According to article PMC5984625, “Dynamic structural states of ClpB involved in its disaggregation function” (Nature Communications, 2018):

Tests used:
[1] = target: the molecule itself; test: AUC; sedimentation velocity, 20 °C, 42,000 rpm, 50 mM MOPS pH 7.5, 50 mM KCl, 5 mM MgCl2, 0.5 and 2.0 mg/mL protein, with 20 mM ADP (preincubated 55 °C 1 min)
[2] = target: the molecule itself; test: AUC; sedimentation velocity, 20 °C, 42,000 rpm, 50 mM MOPS pH 7.5, 50 mM KCl, 5 mM MgCl2, 0.5 and 2.0 mg/mL protein, with 20 mM ATP (preincubated 55 °C 1 min)
[3] = target: the molecule itself; test: AUC; sedimentation velocity, 20 °C, 42,000 rpm, 50 mM MOPS pH 7.5, 50 mM KCl, 5 mM MgCl2, 0.5 and 2.0 mg/mL protein, with 2 mM ATPγS (preincubated 55 °C 1 min)
[4] = target: the molecule itself; test: native MS; incubated at 55 °C with 2 mM ATP or ATPγS for 1 min, exchanged into 150 mM ammonium acetate pH 7.5 with 100 µM ATP or ATPγS at 4 °C; nanoflow electrospray

B1: Full-length T. thermophilus ClpB (TClpB) (natural protein)
chain: not shown
notes: ClpB of Thermus thermophilus, full length, expressed from plasmid pMCB1; The protomer; it assembles into oligomers of varying size depending on the nucleotide; also called full-length TClpB; source: E. coli BL21(DE3) or KRX carrying pMCB1, purified
For B1, the “stoichiometry N” value [1] was under 6, the “stoichiometry N” value [2] was 3 and the “stoichiometry N” value [3] was 6. The “stoichiometry N” value [4] was 2.
